Experimental data as given in article PMC314469, “Protein Interaction Networks by Proteome Peptide Scanning” (PLoS Biology, 2004).

Target: T1, Abp1 SH3 (ABP1_YEAST), P15891
T1 chain: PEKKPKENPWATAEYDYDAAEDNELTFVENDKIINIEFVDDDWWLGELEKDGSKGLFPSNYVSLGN
Assay: SPOT array

## SHKQKRTLANPDKP [YPR079W 40-53]
  normalised SPOT signal, Boehringer light units (BLU); mean over the file's lines of this peptide: 164

## SAKEEENPVEVKP [YPR112C 621-633]
  normalised SPOT signal, Boehringer light units (BLU); mean over the file's lines of this peptide: 63.3

## SMTTRSSHNDPIKP [YAL047C 42-55]
  normalised SPOT signal, Boehringer light units (BLU); mean over the file's lines of this peptide: 205

## SNIVSILPEGAKP [YKL015W 850-862]
  normalised SPOT signal, Boehringer light units (BLU); mean over the file's lines of this peptide: 106

## SIQSKIMLESPKKP [YJL147C 308-321]
  normalised SPOT signal, Boehringer light units (BLU); mean over the file's lines of this peptide: 289

## SKIVTLPPTIFKP [YOR341W 710-722]
  normalised SPOT signal, Boehringer light units (BLU); mean over the file's lines of this peptide: 159

## SKGARFLPAPHRP [YGR154C 61-73]
  normalised SPOT signal, Boehringer light units (BLU); mean over the file's lines of this peptide: 1020

## SASSNASDSGPQRP [YDL106C 66-79]
  normalised SPOT signal, Boehringer light units (BLU); mean over the file's lines of this peptide: 172

## SLTIPFLPVLPQKP [YDR178W 31-44]
  normalised SPOT signal, Boehringer light units (BLU); mean over the file's lines of this peptide: 129

## SANAKLHRTKPVKP [YLR430W 1001-1014]
  normalised SPOT signal, Boehringer light units (BLU); mean over the file's lines of this peptide: 138

## SSSIKLQDQDPSKP [YOR205C 26-39]
  normalised SPOT signal, Boehringer light units (BLU); mean over the file's lines of this peptide: 46

## SNASVADAKEPSRP [YJR138W 1326-1339]
  normalised SPOT signal, Boehringer light units (BLU); mean over the file's lines of this peptide: 46

## SNGAIQTGLQPLKP [YOR329C 434-447]
  normalised SPOT signal, Boehringer light units (BLU); mean over the file's lines of this peptide: 70.4

## SATPRRASSRPTRP [YNR049C 146-159]
  normalised SPOT signal, Boehringer light units (BLU); mean over the file's lines of this peptide: 88.9

## SSSLPLPKLRPPRP [YKL097C 59-72]
  normalised SPOT signal, Boehringer light units (BLU); mean over the file's lines of this peptide: 5200

## SDTNDIKTPHPERP [YER169W 626-639]
  normalised SPOT signal, Boehringer light units (BLU); mean over the file's lines of this peptide: 114

## SAPQLTVPEPSKP [YNL034W 543-555]
  normalised SPOT signal, Boehringer light units (BLU); mean over the file's lines of this peptide: 52.2

## SGKMRSRSSSPVRP [YKL185W 433-446]
  normalised SPOT signal, Boehringer light units (BLU); mean over the file's lines of this peptide: 560

## SDINQLQGVYPSRP [YBR026C 64-77]
  normalised SPOT signal, Boehringer light units (BLU); mean over the file's lines of this peptide: 98.7

## SGNKEAIPALIKP [YKL157W 770-782]
  normalised SPOT signal, Boehringer light units (BLU); mean over the file's lines of this peptide: 82.8

## SKEVTRASTSPPRP [YDR538W 41-54]
  normalised SPOT signal, Boehringer light units (BLU); mean over the file's lines of this peptide: 226

## SLLEFPLTDLPKKP [YLR047C 278-291]
  normalised SPOT signal, Boehringer light units (BLU); mean over the file's lines of this peptide: 118

## SKLKITRNPNPSKP [YHR208W 26-39]
  normalised SPOT signal, Boehringer light units (BLU); mean over the file's lines of this peptide: 115

## SFTIPFLPKIPQKP [YLR164W 23-36]
  normalised SPOT signal, Boehringer light units (BLU); mean over the file's lines of this peptide: 22800

## SKAKDKARGNPEKP [YJL036W 11-24]
  normalised SPOT signal, Boehringer light units (BLU); mean over the file's lines of this peptide: 124

## SSFTSQDSQKPLKP [YDL240W 56-69]
  normalised SPOT signal, Boehringer light units (BLU); mean over the file's lines of this peptide: 113

## SDISAMQPVNPKP [YPR182W 5-17]
  normalised SPOT signal, Boehringer light units (BLU); mean over the file's lines of this peptide: 124

## SAKKAPIDYSPSRP [YDL025C 107-120]
  normalised SPOT signal, Boehringer light units (BLU); mean over the file's lines of this peptide: 0

## SEWNWPQPVILKP [YKR002W 264-276]
  normalised SPOT signal, Boehringer light units (BLU); mean over the file's lines of this peptide: 54.4

## SISSKIRPTPRKP [YER118C 2-14]
  normalised SPOT signal, Boehringer light units (BLU); mean over the file's lines of this peptide: 15700

## SLEHDGRPKTIKP [YKL077W 80-92]
  normalised SPOT signal, Boehringer light units (BLU); mean over the file's lines of this peptide: 56.6

## SIYTSWARDNPSKP [YHR209W 240-253]
  normalised SPOT signal, Boehringer light units (BLU); mean over the file's lines of this peptide: 178

## SISEQYYPEEPTKP [YGR019W 2-15]
  normalised SPOT signal, Boehringer light units (BLU); mean over the file's lines of this peptide: 60.4

## SLKFSLLNHHPYKP [YPR025C 204-217]
  normalised SPOT signal, Boehringer light units (BLU); mean over the file's lines of this peptide: 186

## SLHWTGIPFLGKP [YCR025C 79-91]
  normalised SPOT signal, Boehringer light units (BLU); mean over the file's lines of this peptide: 116

## SEQDATDPASAKP [YIL115C 491-503]
  normalised SPOT signal, Boehringer light units (BLU); mean over the file's lines of this peptide: 49.3

## SKQFLLSPIFAKP [YHR099W 1329-1341]
  normalised SPOT signal, Boehringer light units (BLU); mean over the file's lines of this peptide: 169

## SGLDGILEDEPSRP [YPR117W 1516-1529]
  normalised SPOT signal, Boehringer light units (BLU); mean over the file's lines of this peptide: 30.6

## SLKLNSKPVELKP [YJL041W 617-629]
  normalised SPOT signal, Boehringer light units (BLU); mean over the file's lines of this peptide: 27.9

## SETKSVPSIEPFKP [YER032W 653-666]
  normalised SPOT signal, Boehringer light units (BLU); mean over the file's lines of this peptide: 62.5

## SGDAALVKFVPSKP [YBR118W 394-407]
  normalised SPOT signal, Boehringer light units (BLU); mean over the file's lines of this peptide: 52.8

## SKRKPSPPSQRRP [YPL141C 761-773]
  normalised SPOT signal, Boehringer light units (BLU); mean over the file's lines of this peptide: 6670

## SIKEEKKPFDKKP [YMR284W 586-598]
  normalised SPOT signal, Boehringer light units (BLU); mean over the file's lines of this peptide: 92.3

## SIPSKNTPDASKP [YLR335W 355-367]
  normalised SPOT signal, Boehringer light units (BLU); mean over the file's lines of this peptide: 64.2

## SKAGDEERFLPNRP [YPR117W 1308-1321]
  normalised SPOT signal, Boehringer light units (BLU); mean over the file's lines of this peptide: 144

## SDSEENEPRRKKP [YMR014W 341-353]
  normalised SPOT signal, Boehringer light units (BLU); mean over the file's lines of this peptide: 93.2

## SDDYEELATIPYRP [YOR168W 585-598]
  normalised SPOT signal, Boehringer light units (BLU); mean over the file's lines of this peptide: 45.7

## SDTKTVVPVTNKP [YML035C 237-249]
  normalised SPOT signal, Boehringer light units (BLU); mean over the file's lines of this peptide: 28.6

## SLPTSSSAKAPLRP [YOR266W 165-178]
  normalised SPOT signal, Boehringer light units (BLU); mean over the file's lines of this peptide: 37.9

## SNDDVEFYYPPVKP [YLR155C 216-229]
  normalised SPOT signal, Boehringer light units (BLU); mean over the file's lines of this peptide: 92.8

## SNKTHTEQNNPPKP [YOR290C 408-421]
  normalised SPOT signal, Boehringer light units (BLU); mean over the file's lines of this peptide: 83.8

## SEKPEETPNPLKP [YKL077W 65-77]
  normalised SPOT signal, Boehringer light units (BLU); mean over the file's lines of this peptide: 85.4

## SNSSTAGLVAPLKP [YDR158W 154-167]
  normalised SPOT signal, Boehringer light units (BLU); mean over the file's lines of this peptide: 61.1

## SASSTPIPVLGKP [YOR098C 775-787]
  normalised SPOT signal, Boehringer light units (BLU); mean over the file's lines of this peptide: 100

## SHEHEEPTYHPPKP [YMR231W 646-659]
  normalised SPOT signal, Boehringer light units (BLU); mean over the file's lines of this peptide: 9.2

## SSSALLRRTIPKRP [YDL142C 9-22]
  normalised SPOT signal, Boehringer light units (BLU); mean over the file's lines of this peptide: 253

## SFVDKRNPVDNKP [YOL008W 79-91]
  normalised SPOT signal, Boehringer light units (BLU); mean over the file's lines of this peptide: 92.9

## SNGLLLEPSALRP [YOR023C 198-210]
  normalised SPOT signal, Boehringer light units (BLU); mean over the file's lines of this peptide: 0
